Source: patent publication US20110129488A1, “IMMUNOTHERAPY COMPOSITIONS FOR THE TREATMENT AND PREVENTION OF AMYLOIDOSIS” (MEDIVET PHARMA, S.L., priority 2008, published 2011)
Where no end group is shown, it is not given here.

Columns and labels:
[1] = target: T1, canine Abeta 1-40 peptide (Canis lupus familiaris, UniProt Q28280); test: Anti-Abeta IgG titration (ELISA) of serum from immunized dogs; format: in vivo, dog
T1 construct: made in house; host or cells: chemical synthesis (Fmoc solid phase), no expression host
Description: To validate the immunogenicity of the peptide according to the present invention, dogs were immunized with the synthesized Abeta 28-40 peptide (SEQ ID NO 3) and antibody generation was assessed in serum samples by ELISA. To do that, the peptide fragment was administered conjugated with KLH and mixed with 1 mg Alum (Sigma, St. Louis, Mo., U.S.A.), an adjuvant of general veterinary use. The immunogenicity of the Abeta28-40 peptide was compared versus pre-immune serum according to standard titration of the immune products generated.
Male and female dogs of various breeds, sex and ages certified by their medical records from the veterinary hospital Ars Veterinaria of Barcelona, Spain, were used in this study. In all cases, pet owners formally informed approved the treatment of their dogs. All animals were treated according to European legislation on animal experimentation (86/609/EU), and procedures were approved by the Ethical Committee of the University of Barcelona. All efforts were made to minimize animal suffering and to use no more than the number of animals needed for reliable scientific data.
Dogs were subcutaneously immunized with either: a) 100 μg per animal of SEQ ID NO 3 conjugated with KLH and 1 mg Alum used as adjuvant (n=2) or b) 100 μg per animal of KLH and 1 mg Alum (no peptide n=2). […]

[2] = target: T1, canine Abeta 1-40 peptide; test: ELISA titration of affinity-purified antibodies from rabbit serum; format: binding, dog
Text: Antibody purification was made by affinity chromatography in columns of 4B Sepharose activated with BrCN (GE healthcare 15gr) according to standard procedures. Synthetic Abeta1-40 peptide (SEQ ID NO 1) was linked to the BrCN and used as antigen for the affinity purification of antibodies. Anti-Abeta28-40 antibodies were purified from rabbit serum samples presenting the highest level of titers, i.e. serum samples collected on day 31 after immunization (example 2). The same was true for serum samples used for purification of anti-Abeta 1-40 antibodies. Purified antibodies were firstly eluted with an acid solution of 100 mM glycine in PBS (pH 2.5) and, then with a basic solution of 100 mM glycine and 4 M urea in PBS (pH 9)
The purified antibodies were quantified by ELISA on 96-well plates developed by the biotin-avidin-peroxidase method. Plate sensitization was made overnight at 4° C. with […] of canine Abeta 1-40 peptide diluted in 50 mM NaHCO3 pH 9.6. The ELISA procedure was then carried out as explained in example 2.

[3] = target: Abeta 1-40 peptide (Canis lupus familiaris, UniProt Q28280); test: Anti-Abeta IgG titration (ELISA) of serum from immunized rabbits; format: in vivo, rabbit
Description: To design a veterinary vaccine composition that generates a high level of high affinity antibodies with cross reactivity to the soluble Abeta 1-40 peptide and the plaques in the CNS of dogs with CDS, the relative immunogeneicity of the synthesized sequences of example 1 were characterized separately. To do that, SEQ ID NO 1 and SEQ ID NO 3 were administered conjugated with KLH and mixed with 1 mg of Alum (Sigma, St Louis, U.S.A.) an adjuvant of general veterinary use. The relative immunogenicity of the two peptide sequences was compared according to standard titration of the immune products generated.
Experiments were performed in adult female New Zealand White rabbits weighing between 1.5-2 kg at the beginning of the study. They were kept on a 12 h light/12 h dark cycle and housed with free access to food and water. All animals were manipulated according to the European legislation (86/609/EEC) for animal handling and experimentation. Procedures were approved by the Ethic Committee of the Universitat de Barcelona, under supervision of the Generalitat de Catalunya; all efforts were made to minimize animal suffering and to use only the number of animals necessary to produce reliable scientific data.
Rabbits were subcutaneously immunized with 100 μg of peptide from either: a) SEQ ID NO 3 conjugated with KLH and 1 mg Alum used as adjuvant (n=2); b) SEQ ID NO 1 conjugated with KLH and 1 mg Alum used as adjuvant (n=2); or c) KLH and 1 mg Alum (no peptide n=2). The immunization protocol consisted of a dose subcutaneously delivered up to six sites near the back of the neck, and repeated at days 11, 21, 31 and 41.
Samples of serum were collected from each rabbit at days 0, 21, 31 and 51. Each time, 5 ml blood samples were collected from the ear marginal vein in plastic tubes with no additive. At day 71 rabbits were anaesthetized and exanguinated. Blood samples were then kept at room temperature (RT) for 30 min, afterwards they were centrifuged for 10 min at 3000 rpm. Supernatants were collected as serum samples, aliquoted and stored at −80° C.
Titration of serum samples to detect the presence of antibodies that had been raised by SEQ ID NO 1 and SEQ ID NO 3 was performed by Enzime-Linked Immunosorbent Assays (ELISA) on 96-well plates developed by the biotin-avidin-peroxidase method. Plate sensitization was made overnight at 4° C. with 2 μg/ml of Abeta 1-40 peptide diluted in 50 mM NaHCO3, pH 9.6. […] After washing, specific binding was detected by incubation with Biotin conjugated anti-Rabbit IgG antibody (Sigma, St. Louis, Mo., U.S.A) diluted 1/20000 in TBS for 1 hour at RT. […] Plates were densitometrically analyzed at 450 nm with a Tecan Sunrise Absorbance Reader apparatus (Tecan Iberica, Madrid, Spain). […]

[4] = tested on: aged beagles; settings: aged beagles (8.4-12.4 years) immunized for 2.4 years; cited from earlier work
[5] = tested on: Aβ 1-40 and Aβ 1-42, diffuse plaque; settings: aged beagles (8.4-12.4 years) immunized for 2.4 years; several cortical regions; cited from earlier work

Chain of Abeta 1-40 peptide (Q28280 7-46 limits assumed): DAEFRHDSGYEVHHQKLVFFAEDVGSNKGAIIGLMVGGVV
T1 sequence (Q28280 7-46): as the sequence (Q28280 7-46 limits assumed) above

specific production of anti-Abeta antibodies in serum samples ([1]; 100 μg per animal conjugated with KLH + 1 mg Alum s.c., repeated days 31, 61, 75, day 30 after first immunization) | day of highest values of optic density ([1]; peptide-KLH + Alum s.c., serum days 0, 30, 60, 74, 90) [days] | titers of anti-Abeta antibodies in the basic elution ([2]; basic elution (100 mM glycine, 4 M urea, pH 9), slightly lower than the acid elution) | titers of specific antibodies against canine Abeta1-40 in purified sera ([2]; day 31 serum of immunized rabbits, affinity purified on Abeta1-40 column) | serum dilution that presents half of the maximal binding (B1/2) ([3]; 100 μg peptide s.c. conjugated with KLH + 1 mg Alum, repeated days 11, 21, 31, 41, serum of day 31) | immunogenic response compared with SEQ ID NO 1 ([3]; comparison of B1/2 dilutions of day 31) | specific production of antibodies in serum samples ([3]; peptide-KLH + Alum s.c., from day 21 following the first immunization) | day of highest levels of immunization ([3]; peptide-KLH + Alum s.c., serum days 0, 21, 31, 51) [days] | Substance | measures of learning, spatial attention, or spatial memory [4] | extent of diffuse plaque accumulation [5] | levels of soluble and insoluble Aβ 1-40 and Aβ 1-42 [5]
detected | 74 | high titers | High titers | 1/611 | higher immunogenic response | detected | 31 | KGAIIGLMVGGVV (also: KLH conjugate) [SEQ ID NO 3, canine Abeta protein amino acids 28 to 40; tested conjugated with KLH plus Alum] | – | – | –
– | – | – | – | – | – | – | – | fibrillar Aβ (1-42): fibrillar Aβ (1-42) formulated with aluminum salt (Alum), Head et al. 2008 | no improvement | significantly decreased | significantly decreased
